Molecular target: the molecule itself
Assay: crystal structure

B1: FolM alternative dihydrofolate reductase 1 from Brucella suis (enzyme)
chain: MLNDPEARMVANCPVLVTGGARRIGKAIVEDLASHGFPVAIHCNRSLDEGEAIANRINDSGGNACVVQADLEGDVRGLVKQASDRIGPIRLLVNNASLFQEDKVGALDMALWDRHFAVHLKTPVILAEDMRKALPEDQDGLVVNIIDQRVWKLNPQFFSYTLSKSALWNATRTLAQALAPRIRVNAIAPGPTLPSERQRPEDFERQVSKLPLQRAPELPEFGRTVRYFWENRSITGQMIALDGGQHLAWETPDIAGITE
notes: also called BsFolM; His-BsFolM
  stoichiometry N: 4

B2: FolM alternative dihydrofolate reductase 1 from Brucella canis (enzyme)
chain: MVLNDPEARMVANCPVLVTGGARRIGKAIVEDLASHGFPVAIHCNRSLDEGEAIANRINDSGGNACVVQADLEGDVRGLVKQASDRIGPIRLLVNNASLFQEDKVGALDMALWDRHFAVHLKTPVILAEDMRKALPEDQDGLVVNIIDQRVWKLNPQFFSYTLSKTALWNATRTLAQALAPRIRVNAIAPGPTLPSERQRPEDFERQVSKLPLQRAPELPEFGRTVRYFWENRSITGQMIALDGGQHLAWETPDIAELPNK
notes: also called BcFolM; His-BcFolM
  stoichiometry N: 4
